Measured values as given in patent US20220175781A1, “CD40L COMPOSITIONS AND METHODS FOR TUNABLE REGULATION” (Obsidian Therapeutics, Inc., priority 2019, published 2022).
Several values for one entry are separate records, joined by “and”; a condition that tells them apart may be missing. Equal entries are not always repeated.

Assays:
[1] = system: Monocyte derived dendritic cells (mDC); experiment: Cytokine production in mDC-T cell co-culture (MSD); assay type: cell-based; conditions: for Cytokine Production IFNg / Cytokine Production IL12 / Cytokine Production TNFa: mDC-T cell co-culture 2 days
Source text: In order to engage dendritic cells in an immune response, dendritic cells must be converted to a functional state by an antigen-specific CD4+ helper T cell. Activation of the dendritic cells may be followed by the activation of CD8+ T cells by the dendritic cells, a process referred to as dendritic cell licensing. Engagement of the CD40L expressed on the CD4+ cells with the CD40 on the dendritic cells can result in (i) dendritic cell stimulation-measured by expression of co-stimulatory and MHC molecules (ii) proinflammatory cytokine release (e.g. IL12, TNFα and INFγ) (iii) epitope spreading. To measure the effect of CD40L expression that is tuned by the biocircuits of the present disclosure, CD4+ T cells or Jurkat cells expressing any of the CD40L constructs described herein were co-cultured with dendritic cells.
Dendritic cell function in response to co-culture with T cells expressing CD40L was evaluated in the presence of ligand or corresponding vehicle control. Monocyte derived dendritic cells (mDC) (CD14+) were isolated from fresh blood and cultured for 5 days with IL-4 (7.5 ng/mL) and GM-CSF (20 ng/mL). The mDCs were frozen down after the 5 day culture. T cells were transduced with OT-001662 and expanded for 9 days before being frozen down. mDCs and T cells were thawed and co-cultured 1:10 DC: T cell ratio (i.e. 5×10^4 DCs: 5×10^5 T cells). mDC and T cells were co-cultured for 2 days before cells were collected for flow cytometry and supernatants were collected for cytokine analysis. For evaluation of regulated constructs, ligand (various doses of TMP) was added at the time initiating the co-culture and was kept in the co-culture for 2 days. Cytokines were analyzed by MSD after a single freeze thaw cycle. All cells were cultured in complete RPMI with 10% FBS during the course of the experiment. SR indicates stabilization ratio.

[2] = system: T cells (CD4 and CD8 positive); experiment: CD40L MFI in vitro in CD4 and CD8 positive T cells, 10 μM TMP; assay type: cell-based
Protocol: T cells were transduced with OT-001662 and then treated with 10 μM TMP on day 4. CD40L expression was analyzed by FACS both in the CD4 and CD8 positive T cell populations.

[3] = system: T cells; experiment: % CD40L positive cells in vivo, transduced T cells in NSG mice dosed with TMP; design: species or system NSG female mice
Protocol: Based on the in vitro data, regulatability of CD40L constructs in vivo was tested. 10-week old NSG female mice were injected with T cells transduced with one of the following constructs empty vector, OT-001661, and OT-001662 (day 0). On day 1, mice were pre-bled prior to dose with ligand. On day 2, mice were dosed every 4 hours with TMP at 500 mg/kg body weight of the mouse or vehicle control. Two hours after every dose, blood was collected from the mice to measure CD40L levels. On day 3, i.e. 24 hours after the first dose, mice were terminally bled for analysis. The values in bold represent the average values for each bleed.

[4] = system: T cells (CD4+ and CD8+); experiment: Regulation of CD40L in T cells by different drug responsive domains; assay type: cell-based
[5] = system: T cells; experiment: Dose response of TMP, Bazedoxifene or Raloxifene, % CD40L positive T cells; assay type: cell-based; conditions: T cells
Protocol: T cells were transduced with OT-001662 or OT-001666. On day 4, cells were treated with increasing doses of TMP for T cells expressing OT-001662. Cells expressing OT-001666 were treated either with increasing concentrations of Bazedoxifene or Raloxifene. The data are shown in Table 30 as the percentage of CD40L positive T cells.

B1: OT-001662: CD40L construct with ecDHFR (M1del, R12Y, Y100I) DRD, ligand TMP (protein)
chain: MSGISLIAALAVDYVIGMENAMPWNLPADLAWFKRNTLNKPVIMGRHTWESIGRPLPGRKNIILSSQPGTDDRVTWVKSVDEAIAACGDVPEIMVIGGGRVIEQFLPKAQKLYLTHIDAEVEGDTHFPDYEPDDWESVFSEFHDADAQNSHSYCFEILERRHMIETYNQTSPRSAATGLPISMKIFMYLLTVFLITQMIGSALFAVYLHRRLDKIEDERNLHEDFVFMKTIQRCNTGERSLSLLNCEEIKSQFEGFVKDIMLNKEETKKENSFEMQKGDQNPQIAAHVISEASSKTTSVLQWAEKGYYTMSNNLVTLENGKQLTVKRQGLYYIYAQVTFCSNREASSQAPFIASLCLKSPGRFERILLRAANTHSSAKPCGQQSIHLGGVFELQPGASVFVNVTDPSQVSHGTGFTSFGLLKL
[1]; mDC-T cell co-culture
  IL12, TMP dose response: dose responsive increases
  TNFα, TMP dose response: dose responsive increases
[1]; DMSO
  Cytokine Production IFNg: 3791.2 pg/mL
  Cytokine Production IL12: 0.2535 pg/mL
  Cytokine Production TNFa: 82.2712 pg/mL
[1]; TMP (0.1 μM)
  Cytokine Production IFNg: 7432.13 pg/mL
  Cytokine Production IL12: 0.0705 pg/mL
  Cytokine Production TNFa: 130.9627 pg/mL
[1]; TMP (0.5 μM)
  Cytokine Production IFNg: 3587.14 pg/mL
  Cytokine Production TNFa: 83.86 pg/mL
[1]; TMP (2 μM)
  Cytokine Production IFNg: 16375.2 pg/mL
  Cytokine Production IL12: 19.372 pg/mL
  Cytokine Production TNFa: 248.7836 pg/mL
[1]; TMP (10 μM)
  Cytokine Production IFNg: 13539.7 pg/mL
  Cytokine Production IL12: 59.254 pg/mL
  Cytokine Production TNFa: 251.2844 pg/mL
[1]; mDC-T cell co-culture, 10 μM TMP
  levels of IFNγ: comparable to the levels observed with the constitutive construct OT-001661
[1]; mDC-T cell co-culture, lower doses of TMP
  IFNγ, TMP dose response: dose responsive increase
[2]; CD4+, TMP (10 μM)
  CD40L MFI in vitro: 10159
[2]; CD4+, Vehicle
  CD40L MFI in vitro: 348
[2]; CD8+, TMP (10 μM)
  CD40L MFI in vitro: 4893
[2]; CD8+, Vehicle
  CD40L MFI in vitro: 182
[3]; 0 hours, average, TMP 500 mg/kg every 4 hours
  % CD40L positive cells in vivo: 1.0%
[3]; 0 hours, average, Vehicle
  % CD40L positive cells in vivo: 0.9%
[3]; 0 hours, individual values, TMP 500 mg/kg every 4 hours
  % CD40L positive cells in vivo: 0.9% (2×) and 0.4% and 1.8%
[3]; 0 hours, individual values, Vehicle
  % CD40L positive cells in vivo: 0.8% and 0.9% and 0.1% and 1.8%
[3]; 2 hours, average, TMP 500 mg/kg every 4 hours
  % CD40L positive cells in vivo: 8.6%
[3]; 2 hours, average, Vehicle
  % CD40L positive cells in vivo: 0.9%
[3]; 2 hours, individual values, TMP 500 mg/kg every 4 hours
  % CD40L positive cells in vivo: 11.8% and 13.0% and 9.6% and 0.0%
[3]; 2 hours, individual values, Vehicle
  % CD40L positive cells in vivo: 0.6% and 1.0% and 0.0% and 1.9%
[3]; 6 hours, average, TMP 500 mg/kg every 4 hours
  % CD40L positive cells in vivo: 19.9%
[3]; 6 hours, average, Vehicle
  % CD40L positive cells in vivo: 0.3%
[3]; 6 hours, individual values, TMP 500 mg/kg every 4 hours
  % CD40L positive cells in vivo: 22.1% and 25.7% and 13.8% and 18.0%
[3]; 6 hours, individual values, Vehicle
  % CD40L positive cells in vivo: 0.3% and 0.4% and 0.5% and 0.2%
[3]; 10 hours, average, TMP 500 mg/kg every 4 hours
  % CD40L positive cells in vivo: 20.1%
[3]; 10 hours, average, Vehicle
  % CD40L positive cells in vivo: 0.1%
[3]; 10 hours, individual values, TMP 500 mg/kg every 4 hours
  % CD40L positive cells in vivo: 26.0% and 21.4% and 0.0% and 33.1%
[3]; 10 hours, individual values, Vehicle
  % CD40L positive cells in vivo: 0.0% (3×) and 0.3%
[3]; 24 hours, average, TMP 500 mg/kg every 4 hours
  % CD40L positive cells in vivo: 12.0%
[3]; 24 hours, average, Vehicle
  % CD40L positive cells in vivo: 0.6%
[3]; 24 hours, individual values, TMP 500 mg/kg every 4 hours
  % CD40L positive cells in vivo: 1.2% and 0.8% and 18.9% and 27.2%
[3]; 24 hours, individual values, Vehicle
  % CD40L positive cells in vivo: 0.0% and 0.3% and 1.4% and 0.7%
[4]; All Cells, 10 uM TMP
  CD40L positive: 89.7%
  MFI: 2122
[4]; All Cells, DMSO
  CD40L positive: 7.6%
  MFI: 140
[4]; CD4+, 10 uM TMP
  CD40L positive: 94.4%
  MFI: 2608
[4]; CD4+, DMSO
  CD40L positive: 8.8%
  MFI: 152
[4]; CD8+, 10 uM TMP
  CD40L positive: 74.9%
  MFI: 1070
[4]; CD8+, DMSO
  CD40L positive: 91.8%
  MFI: 2.1
[5]; increasing doses of TMP
  % CD40L positive T cells, dose response: dose dependent increase
[5]; TMP Dose 0.01 μM
  Percent of cells expressing CD40L: 8.74%
[5]; TMP Dose 0.1 μM
  Percent of cells expressing CD40L: 13.3%
[5]; TMP Dose 1 μM
  Percent of cells expressing CD40L: 38.8%
[5]; TMP Dose 10 μM
  Percent of cells expressing CD40L: 71%
[5]; TMP Dose 100 μM
  Percent of cells expressing CD40L: 73.3%

B2: OT-001666 (Met; ER (305-549 of WT, L384M, N413D, M421G, G521R, Y537S); Histidine; CD40L; stop) (ligand)
chain: MSLALSLTADQMVSALLDAEPPILYSEYDPTRPFSEASMMGLLTNLADRELVHMINWAKRVPGFVDLTLHDQVHLLECAWMEILMIGLVWRSMEHPGKLLFAPNLLLDRDQGKCVEGGVEIFDMLLATSSRFRMMNLQGEEFVCLKSIILLNSGVYTFLSSTLKSLEEKDHIHRVLDKITDTLIHLMAKAGLTLQQQHQRLAQLLLILSHIRHMSNKRMEHLYSMKCKNVVPLSDLLLEMLDAHRLHMIETYNQTSPRSAATGLPISMKIFMYLLTVFLITQMIGSALFAVYLHRRLDKIEDERNLHEDFVFMKTIQRCNTGERSLSLLNCEEIKSQFEGFVKDIMLNKEETKKENSFEMQKGDQNPQIAAHVISEASSKTTSVLQWAEKGYYTMSNNLVTLENGKQLTVKRQGLYYIYAQVTFCSNREASSQAPFIASLCLKSPGRFERILLRAANTHSSAKPCGQQSIHLGGVFELQPGASVFVNVTDPSQVSHGTGFTSFGLLKL
[5]; increasing concentrations of Bazedoxifene
  % CD40L positive T cells, dose response: dose dependent increase
[5]; increasing concentrations of Raloxifene
  Raloxifene dependent expression: observed only at the 1 μM dose
